Numbering of substitutions follows the chain as printed.
T1: Ala mutant of TA0096, SEQ ID NO: 38
T1 peptide: EENMDDQWMQDAMEIGY

T2: Ala mutant having 3-amino acid substitution, SEQ ID NO: 48
T2 peptide: EENMDDQWMQDEAAAGY

T3: Ala mutant of TA0096, SEQ ID NO: 27
T3 peptide: AENMDDQWMQDEMEIGY

T4: Ala mutant having 3-amino acid substitution, SEQ ID NO: 45
T4 peptide: EENAAAQWMQDEMEIGY

T5: Ala mutant of TA0096, SEQ ID NO: 37
T5 peptide: EENMDDQWMQAEMEIGY

T6: Ala mutant of TA0096, SEQ ID NO: 28
T6 peptide: EANMDDQWMQDEMEIGY

T7: Ala mutant having 3-amino acid substitution, SEQ ID NO: 44
T7 peptide: AAAMDDQWMQDEMEIGY

T8: Ala mutant of TA0096, SEQ ID NO: 35
T8 peptide: EENMDDQWAQDEMEIGY

T9: Ala mutant having 3-amino acid substitution, SEQ ID NO: 47
T9 peptide: EENMDDQWMAAAMEIGY

T10: Ala mutant of TA0096, SEQ ID NO: 43
T10 peptide: EENMDDQWMQDEMEIGA

T11: Ala mutant of TA0096, SEQ ID NO: 30
T11 peptide: EENADDQWMQDEMEIGY

T12: Ala mutant of TA0096, SEQ ID NO: 42
T12 peptide: EENMDDQWMQDEMEIAY

T13: Ala mutant of TA0096, SEQ ID NO: 40
T13 peptide: EENMDDQWMQDEMAIGY

T14: Ala mutant of TA0096, SEQ ID NO: 29
T14 peptide: EEAMDDQWMQDEMEIGY

T15: TA0096 (peptide antigen corresponding to positions 340 to 356 of PAD4)
T15 peptide: EENMDDQWMQDEMEIGY

T16: Ala mutant of TA0096, SEQ ID NO: 36
T16 peptide: EENMDDQWMADEMEIGY

T17: Ala mutant of TA0096, SEQ ID NO: 33
T17 peptide: EENMDDAWMQDEMEIGY

T18: Ala mutant of TA0096, SEQ ID NO: 41
T18 peptide: EENMDDQWMQDEMEAGY

T19: Ala mutant of TA0096, SEQ ID NO: 31
T19 peptide: EENMADQWMQDEMEIGY

T20: Ala mutant of TA0096, SEQ ID NO: 34
T20 peptide: EENMDDQAMQDEMEIGY

T21: Ala mutant having 3-amino acid substitution, SEQ ID NO: 49
T21 peptide: EENMDDQWMQDEMEIAA

T22: Ala mutant of TA0096, SEQ ID NO: 39
T22 peptide: EENMDDQWMQDEAEIGY

B1: G6 (antibody, V domains shown)
VH: AVTLDESGGGLQTPGGALSLVCKASGFTFSSYGMEWVRQAPGKGLEYVAAIRNDGSWTGYGAAVKGRATISRDDGQSTLRLQLNNLRAEDTATYYCAKTTGSSGGSIDAWGHGTEVIVS
VL: ASTQPSSVSANLGETVKITCSGGGNYYYGWYQQKSPGSAPVTLIYANDKRPSNIPSRFSGSKSGSTGTLTITGVQAEDEAVYFCGTADTGKYVFGAGTTLTVL
notes: Chicken variable regions in a mouse chimeric antibody (IgG1); also called anti-PAD4 antibody G6
B2: E9 (antibody, V domains shown)
VH: B1 VH with A17T, A24G, E35G, V37M, A62S, D74N, L79V, T100S, I107V
VL: B1 VL with E14G, K17E, N25R, L43V, N53D, T86S, D88E, G90S, K91S
notes: Chicken variable regions in a mouse chimeric antibody (IgG1); also called anti-PAD4 antibody E9
B3: G9 (antibody, V domains shown)
VH: AVTLDESGGGLQTPGGALSLVCKASGFTFSTYAMGWMRQAPGKGLEYVAAIRNDGSWTGYGAAVKGRATILRDNGQSTVRLQLSNLRAEDTGTYYCAKYTGSSGGSIGAWGHGTEVIVS
VL: AVTQPASVSANLGGTVEITCSGGGRYYYGWYQQKSPGSAPVTVIYANDKRPSDIPSRFSGSKSGSTGTLTITGVQAEDEAVYFCGSAETSSYVFGAGTTLTVL
notes: Chicken variable regions in a mouse chimeric antibody (IgG1); also called anti-PAD4 antibody G9

The binders below were run against T23, full-length recombinant human PAD4 (human, UniProt Q9UM07 1-663) (assay: ELISA, coated human PAD4; antibody 0.015625 ug/mL).
T23 construct: Full-length recombinant; also called peptidylarginine deiminase 4
T23 sequence (Q9UM07 whole entry): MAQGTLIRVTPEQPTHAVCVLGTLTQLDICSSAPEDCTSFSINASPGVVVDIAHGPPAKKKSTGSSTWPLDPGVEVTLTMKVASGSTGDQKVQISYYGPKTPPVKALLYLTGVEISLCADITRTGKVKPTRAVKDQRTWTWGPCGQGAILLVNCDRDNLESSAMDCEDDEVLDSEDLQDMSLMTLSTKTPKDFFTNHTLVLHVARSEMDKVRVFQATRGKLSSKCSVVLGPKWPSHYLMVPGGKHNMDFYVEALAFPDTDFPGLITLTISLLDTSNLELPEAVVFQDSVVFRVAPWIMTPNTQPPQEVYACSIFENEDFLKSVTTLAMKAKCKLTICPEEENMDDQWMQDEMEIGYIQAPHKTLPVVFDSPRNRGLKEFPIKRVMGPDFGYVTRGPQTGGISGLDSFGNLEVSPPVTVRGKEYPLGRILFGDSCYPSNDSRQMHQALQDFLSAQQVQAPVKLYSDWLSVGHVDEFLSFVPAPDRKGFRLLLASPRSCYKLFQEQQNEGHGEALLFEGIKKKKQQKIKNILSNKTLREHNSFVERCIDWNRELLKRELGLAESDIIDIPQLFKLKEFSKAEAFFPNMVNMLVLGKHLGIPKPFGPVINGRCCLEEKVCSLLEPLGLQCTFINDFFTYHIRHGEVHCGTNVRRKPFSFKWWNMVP

| OD 490/630 nm | Binder |
| --- | --- |
| 2.01 | B1 |
| 2.08 | B2 |
| 2.07 | B3 |

These binders were tested against full-length recombinant human or mouse PAD4 (species used for Table 7 and FIG. 7 not stated) (assay: cell-based or functional assay).

| Relative citrullination activity | Binder |
| --- | --- |
| 69 relative to PBS = 100 | B1 |
| 59 relative to PBS = 100 | B2 |
| 68 relative to PBS = 100 | B3 |

What follows are binders tested against T23, full-length recombinant human PAD4 (assay: ELISA, coated human PAD4; antibody 6.104E-05 ug/mL).

| OD 490/630 nm | Binder |
| --- | --- |
| 0.075 | B1 |
| 0.07 | B2 |
| 0.082 | B3 |

These binders were tested against T24, full-length recombinant mouse PAD4 (mouse, UniProt Q9Z183 1-666) (assay: ELISA, coated mouse PAD4; antibody 1 ug/mL).
T24 construct: mature; Full-length recombinant
T24 sequence (Q9Z183 whole entry): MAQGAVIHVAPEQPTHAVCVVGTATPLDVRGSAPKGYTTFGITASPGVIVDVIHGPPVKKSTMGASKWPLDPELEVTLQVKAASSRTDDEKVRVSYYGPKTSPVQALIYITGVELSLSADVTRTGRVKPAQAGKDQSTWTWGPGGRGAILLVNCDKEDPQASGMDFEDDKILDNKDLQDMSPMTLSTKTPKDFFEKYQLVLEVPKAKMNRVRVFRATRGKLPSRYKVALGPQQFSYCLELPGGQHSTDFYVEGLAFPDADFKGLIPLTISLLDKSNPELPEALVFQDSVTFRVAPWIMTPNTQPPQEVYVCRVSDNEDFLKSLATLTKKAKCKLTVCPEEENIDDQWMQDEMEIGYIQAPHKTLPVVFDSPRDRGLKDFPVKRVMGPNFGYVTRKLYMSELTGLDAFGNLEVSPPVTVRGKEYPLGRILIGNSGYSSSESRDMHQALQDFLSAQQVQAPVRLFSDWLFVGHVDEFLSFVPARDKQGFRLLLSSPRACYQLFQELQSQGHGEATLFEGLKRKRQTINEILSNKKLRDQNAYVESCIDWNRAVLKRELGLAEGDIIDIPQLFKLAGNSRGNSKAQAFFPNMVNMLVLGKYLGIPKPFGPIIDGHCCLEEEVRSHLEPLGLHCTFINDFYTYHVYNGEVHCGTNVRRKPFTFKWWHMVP

| OD 490/630 nm | Binder |
| --- | --- |
| 2.27 | B1 |
| 2.23 | B2 |
| 2.3 | B3 |

What follows are binders tested against T23, full-length recombinant human PAD4 (assay: ELISA, coated human PAD4; antibody 0.25 ug/mL).

| OD 490/630 nm | Binder |
| --- | --- |
| 2.07 | B1 |
| 2.08 | B2 |
| 2.08 | B3 |

Each binder was assayed against T23, full-length recombinant human PAD4 (assay: ELISA, coated human PAD4; antibody 0.0002441 ug/mL).

| OD 490/630 nm | Binder |
| --- | --- |
| 0.166 | B1 |
| 0.176 | B2 |
| 0.187 | B3 |

Each binder was assayed against T24, full-length recombinant mouse PAD4 (assay: ELISA, coated mouse PAD4; antibody 0.0039063 ug/mL).

| OD 490/630 nm | Binder |
| --- | --- |
| 0.55 | B1 |
| 0.956 | B2 |
| 1.39 | B3 |

Target: T1, Ala mutant of TA0096, SEQ ID NO: 38
Assay: ELISA, coated peptide

| OD 490/630 nm | Binder |
| --- | --- |
| 1.92 | B1 |
| 1.91 | B2 |
| 1.96 | B3 |

Target: T2, Ala mutant having 3-amino acid …
Assay: ELISA, coated peptide

| OD 490/630 nm | Binder |
| --- | --- |
| 1.85 | B1 |
| 1.81 | B2 |
| 1.89 | B3 |

Target: T3, Ala mutant of TA0096, SEQ ID NO: 27
Assay: ELISA, coated peptide

| OD 490/630 nm | Binder |
| --- | --- |
| 1.91 | B1 |
| 1.89 | B2 |
| 1.93 | B3 |

Target: T4, Ala mutant having 3-amino acid …
Assay: ELISA, coated peptide

| OD 490/630 nm | Binder |
| --- | --- |
| 0.018 | B1 |
| 0.022 | B2 |
| 0.019 | B3 |

Target: T5, Ala mutant of TA0096, SEQ ID NO: 37
Assay: ELISA, coated peptide

| OD 490/630 nm | Binder |
| --- | --- |
| 1.85 | B1 |
| 1.2 | B2 |
| 1.88 | B3 |

Target: T6, Ala mutant of TA0096, SEQ ID NO: 28
Assay: ELISA, coated peptide

| OD 490/630 nm | Binder |
| --- | --- |
| 1.99 | B1 |
| 2 | B2 |
| 1.96 | B3 |

Target: T7, Ala mutant having 3-amino acid …
Assay: ELISA, coated peptide

| OD 490/630 nm | Binder |
| --- | --- |
| 1.92 | B1 |
| 1.9 | B2 |
| 1.92 | B3 |

Target: T8, Ala mutant of TA0096, SEQ ID NO: 35
Assay: ELISA, coated peptide

| OD 490/630 nm | Binder |
| --- | --- |
| 0.015 | B1 |
| 0.017 | B2 |
| 0.253 | B3 |

Target: T9, Ala mutant having 3-amino acid …
Assay: ELISA, coated peptide

| OD 490/630 nm | Binder |
| --- | --- |
| 1.73 | B1 |
| 1.34 | B2 |
| 1.85 | B3 |

Target: T10, Ala mutant of TA0096, SEQ ID NO: 43
Assay: ELISA, coated peptide

| OD 490/630 nm | Binder |
| --- | --- |
| 1.87 | B1 |
| 1.88 | B2 |
| 1.88 | B3 |

Target: T11, Ala mutant of TA0096, SEQ ID NO: 30
Assay: ELISA, coated peptide

| OD 490/630 nm | Binder |
| --- | --- |
| 1.92 | B1 |
| 1.91 | B2 |
| 2.03 | B3 |

Target: T12, Ala mutant of TA0096, SEQ ID NO: 42
Assay: ELISA, coated peptide

| OD 490/630 nm | Binder |
| --- | --- |
| 1.87 | B1 |
| 1.83 | B2 |
| 1.85 | B3 |

Target: T13, Ala mutant of TA0096, SEQ ID NO: 40
Assay: ELISA, coated peptide

| OD 490/630 nm | Binder |
| --- | --- |
| 1.86 | B1 |
| 1.82 | B2 |
| 1.88 | B3 |

Target: T14, Ala mutant of TA0096, SEQ ID NO: 29
Assay: ELISA, coated peptide

| OD 490/630 nm | Binder |
| --- | --- |
| 1.95 | B1 |
| 1.92 | B2 |
| 1.94 | B3 |

Target: T15, TA0096 (peptide antigen corresponding …)
Assay: ELISA, coated peptide

| OD 490/630 nm | Binder |
| --- | --- |
| 1.87 | B1 |
| 1.79 | B2 |
| 1.85 | B3 |

Target: T16, Ala mutant of TA0096, SEQ ID NO: 36
Assay: ELISA, coated peptide

| OD 490/630 nm | Binder |
| --- | --- |
| 1.85 | B1 |
| 1.9 | B2 |
| 1.87 | B3 |

Target: T17, Ala mutant of TA0096, SEQ ID NO: 33
Assay: ELISA, coated peptide

| OD 490/630 nm | Binder |
| --- | --- |
| 1.98 | B1 |
| 1.93 | B2 |
| 1.98 | B3 |

Target: T18, Ala mutant of TA0096, SEQ ID NO: 41
Assay: ELISA, coated peptide

| OD 490/630 nm | Binder |
| --- | --- |
| 1.87 | B1 |
| 1.8 | B2 |
| 1.89 | B3 |

Target: T19, Ala mutant of TA0096, SEQ ID NO: 31
Assay: ELISA, coated peptide

| OD 490/630 nm | Binder |
| --- | --- |
| 1.77 | B1 |
| 1.38 | B2 |
| 1.48 | B3 |

Target: T20, Ala mutant of TA0096, SEQ ID NO: 34
Assay: ELISA, coated peptide

| OD 490/630 nm | Binder |
| --- | --- |
| 0.042 | B1 |
| 0.047 | B2 |
| 0.038 | B3 |

Target: T21, Ala mutant having 3-amino acid …
Assay: ELISA, coated peptide

| OD 490/630 nm | Binder |
| --- | --- |
| 1.88 | B1 |
| 1.85 | B2 |
| 1.92 | B3 |

Target: T22, Ala mutant of TA0096, SEQ ID NO: 39
Assay: ELISA, coated peptide

| OD 490/630 nm | Binder |
| --- | --- |
| 1.83 | B1 |
| 1.77 | B2 |
| 1.87 | B3 |

The binders below were run against T24, full-length recombinant mouse PAD4 (assay: ELISA, coated mouse PAD4; antibody 0.015625 ug/mL).

| OD 490/630 nm | Binder |
| --- | --- |
| 1.35 | B1 |
| 1.86 | B2 |
| 2.21 | B3 |

These binders were tested against T24, full-length recombinant mouse PAD4 (assay: ELISA, coated mouse PAD4; antibody 0.25 ug/mL).

| OD 490/630 nm | Binder |
| --- | --- |
| 2.27 | B1 |
| 2.23 | B2 |
| 2.25 | B3 |

— US20180044434A1 (PUBLIC UNIVERSITY CORPORATION YOKOHAMA CITY UNIVERSITY, published 2018)
